In paper PMC7385642:
“And” between values parts separate entries of the source, which are not always exact repeats. Equal entries are not always repeated.

Key:
[1] = biological target: YSD1_16, auxiliary protein of phage YSD1 (in the virion) (phage YSD1); test: cryo-EM structure; single-particle icosahedral reconstruction of the head of purified YSD1 virions (assembled in infected bacteria), 3.8 Å
[2] = biological target: YSD1_22, tail-tube protein of phage YSD1 (in the virion tail) (phage YSD1); test: cryo-EM structure; helical reconstruction (C6 symmetry) of the tail tube of purified YSD1 virions (assembled in infected bacteria), 3.5 Å
[3] = biological target: YSD1_22 delta-HP (residues 45-69 removed and replaced with a glycine) with C-terminal hexa-histidine tag (phage YSD1); test: SEC-MALS; in-line refractive index and multi-angle laser light scattering (DAWN HELEOS-II, Optilab T-rEX), 25 mM Tris pH 8.0, 200 mM NaCl
[4] = biological target: YSD1_17, major capsid protein of phage YSD1 (in the virion) (phage YSD1); test: cryo-EM structure; single-particle icosahedral reconstruction of the head of purified YSD1 virions (assembled in infected bacteria), 3.8 Å

## YSD1_16, auxiliary protein of phage YSD1 (in the virion) (natural protein)
[1]
  stoichiometry N: 3

## YSD1_22, tail-tube protein of phage YSD1 (in the virion tail) (natural protein)
[2]
  stoichiometry N: 6

## YSD1_22 delta-HP (residues 45-69 removed and replaced with a glycine) with C-terminal hexa-histidine tag (natural protein)
[3]
  stoichiometry N: 6

## YSD1_17, major capsid protein of phage YSD1 (in the virion) (natural protein)
[4]
  stoichiometry N: 5 and 6
